Paper PMC3634029 (PLoS ONE, 2013)

Molecular target: T1, Full-length recombinant FVIII (Kogenate FS) (Homo sapiens, UniProt P00451)
T1 construct: coagulation factor VIII, human, full-length recombinant (Kogenate FS); also called coagulation factor VIII; source: provided by Bayer Healthcare (Kogenate FS), reconstituted and dialyzed into Borate Buffer
Assay: ELISA; FVIII (6.6 nM in PBS) coated; Bo2C11 serially diluted 1:3 from 60 nM; detected by anti-human IgG
Conditions: both partners purified

T1 sequence (P00451 20-2351): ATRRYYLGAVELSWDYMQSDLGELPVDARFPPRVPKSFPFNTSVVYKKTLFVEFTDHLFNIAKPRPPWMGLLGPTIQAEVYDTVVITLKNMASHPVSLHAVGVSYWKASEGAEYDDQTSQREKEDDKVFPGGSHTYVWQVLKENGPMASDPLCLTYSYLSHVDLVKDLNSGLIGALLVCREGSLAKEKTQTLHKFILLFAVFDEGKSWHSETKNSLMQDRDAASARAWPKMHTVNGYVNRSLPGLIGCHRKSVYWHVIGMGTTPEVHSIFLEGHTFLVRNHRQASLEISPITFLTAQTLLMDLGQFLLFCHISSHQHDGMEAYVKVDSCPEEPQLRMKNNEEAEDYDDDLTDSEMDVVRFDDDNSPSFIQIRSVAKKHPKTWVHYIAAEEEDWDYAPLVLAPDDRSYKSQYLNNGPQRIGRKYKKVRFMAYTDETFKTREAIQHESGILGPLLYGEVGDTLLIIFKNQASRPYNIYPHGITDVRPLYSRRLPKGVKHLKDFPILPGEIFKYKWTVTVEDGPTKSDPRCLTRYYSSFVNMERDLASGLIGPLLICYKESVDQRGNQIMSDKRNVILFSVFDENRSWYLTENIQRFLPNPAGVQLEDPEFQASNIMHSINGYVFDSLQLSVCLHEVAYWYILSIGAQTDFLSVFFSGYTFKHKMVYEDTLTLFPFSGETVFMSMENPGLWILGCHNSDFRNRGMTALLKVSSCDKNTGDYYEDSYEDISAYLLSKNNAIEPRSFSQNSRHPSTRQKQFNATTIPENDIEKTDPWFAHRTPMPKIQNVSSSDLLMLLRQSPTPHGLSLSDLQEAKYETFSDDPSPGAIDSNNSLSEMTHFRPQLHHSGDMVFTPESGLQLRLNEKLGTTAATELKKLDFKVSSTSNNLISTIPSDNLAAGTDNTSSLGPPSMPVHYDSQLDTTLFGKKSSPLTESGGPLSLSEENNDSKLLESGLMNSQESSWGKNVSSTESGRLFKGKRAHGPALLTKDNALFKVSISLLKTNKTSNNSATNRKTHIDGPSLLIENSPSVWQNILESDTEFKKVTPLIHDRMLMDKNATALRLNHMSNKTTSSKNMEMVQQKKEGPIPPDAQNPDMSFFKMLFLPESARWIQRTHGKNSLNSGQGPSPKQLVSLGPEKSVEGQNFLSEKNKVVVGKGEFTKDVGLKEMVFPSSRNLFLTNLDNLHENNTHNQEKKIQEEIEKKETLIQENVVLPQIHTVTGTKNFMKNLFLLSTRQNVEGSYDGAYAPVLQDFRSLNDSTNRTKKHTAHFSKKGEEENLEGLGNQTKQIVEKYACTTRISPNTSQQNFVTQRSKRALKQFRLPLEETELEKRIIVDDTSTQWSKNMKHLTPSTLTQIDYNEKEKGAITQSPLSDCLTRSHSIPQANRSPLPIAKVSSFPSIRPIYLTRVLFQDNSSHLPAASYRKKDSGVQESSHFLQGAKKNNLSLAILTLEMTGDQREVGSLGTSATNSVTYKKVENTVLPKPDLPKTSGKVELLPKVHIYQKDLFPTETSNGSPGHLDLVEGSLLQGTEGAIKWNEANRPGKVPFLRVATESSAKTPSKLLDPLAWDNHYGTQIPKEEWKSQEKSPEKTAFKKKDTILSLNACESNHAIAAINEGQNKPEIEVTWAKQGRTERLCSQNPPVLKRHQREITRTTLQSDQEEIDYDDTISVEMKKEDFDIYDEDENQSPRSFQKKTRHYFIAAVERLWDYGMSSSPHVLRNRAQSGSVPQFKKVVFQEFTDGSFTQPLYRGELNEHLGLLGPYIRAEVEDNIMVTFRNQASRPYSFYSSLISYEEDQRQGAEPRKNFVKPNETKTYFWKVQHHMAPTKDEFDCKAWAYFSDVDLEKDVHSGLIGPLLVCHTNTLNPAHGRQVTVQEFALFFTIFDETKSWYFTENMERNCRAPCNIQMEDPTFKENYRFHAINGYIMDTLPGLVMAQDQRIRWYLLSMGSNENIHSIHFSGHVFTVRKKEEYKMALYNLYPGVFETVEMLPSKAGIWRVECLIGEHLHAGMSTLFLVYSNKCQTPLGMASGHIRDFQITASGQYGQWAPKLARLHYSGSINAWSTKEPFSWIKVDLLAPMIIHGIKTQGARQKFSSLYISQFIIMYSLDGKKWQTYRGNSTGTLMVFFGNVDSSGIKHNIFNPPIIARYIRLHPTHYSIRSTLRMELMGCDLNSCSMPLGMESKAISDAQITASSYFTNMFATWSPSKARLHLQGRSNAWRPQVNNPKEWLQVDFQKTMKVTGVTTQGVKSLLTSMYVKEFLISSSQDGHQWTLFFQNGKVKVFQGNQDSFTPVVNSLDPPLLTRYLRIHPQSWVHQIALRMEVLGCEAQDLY

EC50: 2.66 nM
B1: human monoclonal anti-FVIII antibody Bo2C11 (antibody, V domains shown)
VH: QVQLVQSGAEVKKPGASVKVSCKVSGYTLTELPVHWVGQAPGKGLEWVGSFDPESGESIYAREFQGSVTMTADTSTDIAYMELSSLRSDDTAVYYCAVPDPDAFDIWGQGTMVTVSS
VL: EIALTQSPGTLSLSPGERATLSCRASQSFSSSYLAWYQQKPGQAPRLLIYGASTRATGIPDRFSGSGSGTDFTLTISRLEPEDFAVYYCQKYGTSAITFGQGTRLEIK
